Legend:
[1] = target: T1, human ORC1 (origin recognition complex subunit 1), full-length (human, UniProt Q13415 1-861); assay: cryo-EM structure; HsORC1–5 purified by two steps (anti-HA beads, Streptactin beads) after high-salt treatment, mild fixation by GraFix; map at 4.4 Å, State I 5.0 Å, State II 4.8 Å, four subgroups by local classification on ORC1-AAA+; details: both partners purified
T1 construct: Origin recognition complex subunit 1, human, full-length codon-optimized synthetic gene; No removal of the tag is described; HsORC1–5 was eluted from Streptactin beads with desthiobiotin; Samples for cryo-EM were mildly cross-linked with glutaraldehyde (GraFix); also called HsORC1; source: Sf21 insect cells, MultiBac baculovirus, co-overexpressed with the other ORC subunits; not shown: twin-strep …
T1 sequence (looked up): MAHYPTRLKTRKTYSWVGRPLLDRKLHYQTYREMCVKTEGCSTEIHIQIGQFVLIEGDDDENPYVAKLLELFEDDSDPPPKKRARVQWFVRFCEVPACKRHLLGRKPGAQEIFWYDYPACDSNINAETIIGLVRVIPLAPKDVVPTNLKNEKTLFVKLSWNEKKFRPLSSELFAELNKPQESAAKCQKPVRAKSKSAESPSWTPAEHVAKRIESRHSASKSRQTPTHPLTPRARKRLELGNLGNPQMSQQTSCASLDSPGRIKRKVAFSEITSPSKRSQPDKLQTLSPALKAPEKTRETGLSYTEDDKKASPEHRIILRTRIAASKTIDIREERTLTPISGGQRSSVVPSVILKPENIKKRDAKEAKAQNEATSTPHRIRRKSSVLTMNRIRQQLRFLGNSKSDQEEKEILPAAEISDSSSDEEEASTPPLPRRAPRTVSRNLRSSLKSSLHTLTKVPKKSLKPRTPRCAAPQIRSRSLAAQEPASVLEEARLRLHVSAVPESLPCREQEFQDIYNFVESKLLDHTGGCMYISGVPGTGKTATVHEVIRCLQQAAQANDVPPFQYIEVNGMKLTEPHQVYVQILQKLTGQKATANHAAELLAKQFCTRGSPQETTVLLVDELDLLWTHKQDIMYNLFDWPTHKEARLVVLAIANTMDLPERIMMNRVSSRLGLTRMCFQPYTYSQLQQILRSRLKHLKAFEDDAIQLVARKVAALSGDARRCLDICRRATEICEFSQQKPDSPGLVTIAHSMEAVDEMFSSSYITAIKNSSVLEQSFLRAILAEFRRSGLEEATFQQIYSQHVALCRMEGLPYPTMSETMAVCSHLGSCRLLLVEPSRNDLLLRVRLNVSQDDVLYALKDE

[2] = target: T1, human ORC1 (origin recognition complex …); assay: co-IP; anti-Flag immunoprecipitation (M2-flag affinity beads, eluted with 0.5 mg/mL flag peptide) of N-terminal Flag-tagged ORC2 from soluble lysate of insect cells co-overexpressing ORC1 to ORC6; lysis buffer A: 25 mM HEPES-KOH pH 7.6, 0.2 M KCl, 5 mM ATP, 10% glycerol, 0.05% NP-40; details: partners not purified

B1: human ORC4 (origin recognition complex subunit 4), full-length (natural protein, UniProt O43929 1-436, looked up)
chain: MSSRKSKSNSLIHTECLSQVQRILRERFCRQSPHSNLFGVQVQYKHLSELLKRTALHGESNSVLIIGPRGSGKTMLINHALKELMEIEEVSENVLQVHLNGLLQINDKIALKEITRQLNLENVVGDKVFGSFAENLSFLLEALKKGDRTSSCPVIFILDEFDLFAHHKNQTLLYNLFDISQSAQTPIAVIGLTCRLDILELLEKRVKSRFSHRQIHLMNSFGFPQYVKIFKEQLSLPAEFPDKVFAEKWNENVQYLSEDRSVQEVLQKHFNISKNLRSLHMLLMLALNRVTASHPFMTAVDLMEASQLCSMDSKANIVHGLSVLEICLIIAMKHLNDIYEEEPFNFQMVYNEFQKFVQRKAHSVYNFEKPVVMKAFEHLQQLELIKPMERTSGNSQREYQLMKLLLDNTQIMNALQKYPNCPTDVRQWATSSLSWL
notes: Origin recognition complex subunit 4, human, full-length codon-optimized synthetic gene; No tag is named for this subunit; Samples for cryo-EM were mildly cross-linked with glutaraldehyde (GraFix); also called HsORC4; source: Sf21 insect cells, MultiBac baculovirus, co-overexpressed with the other ORC subunits
[1]
  binding result: binds

B2: human ORC5 (origin recognition complex subunit 5), full-length (natural protein, UniProt O43913 1-435, looked up)
chain: MPHLENVVLCRESQVSILQSLFGERHHFSFPSIFIYGHTASGKTYVTQTLLKTLELPHVFVNCVECFTLRLLLEQILNKLNHLSSSEDGCSTEITCETFNDFVRLFKQVTTAENLKDQTVYIVLDKAEYLRDMEANLLPGFLRLQELADRNVTVLFLSEIVWEKFRPNTGCFEPFVLYFPDYSIGNLQKILSHDHPPEYSADFYAAYINILLGVFYTVCRDLKELRHLAVLNFPKYCEPVVKGEASERDTRKLWRNIEPHLKKAMQTVYLREISSSQWEKLQKDDTDPGQLKGLSAHTHVELPYYSKFILIAAYLASYNPARTDKRFFLKHHGKIKKTNFLKKHEKTSNHLLGPKPFPLDRLLAILYSIVDSRVAPTANIFSQITSLVTLQLLTLVGHDDQLDGPKYKCTVSLDFIRAIARTVNFDIIKYLYDFL
notes: Origin recognition complex subunit 5, human, full-length codon-optimized synthetic gene; Samples for cryo-EM were mildly cross-linked with glutaraldehyde (GraFix); also called HsORC5; source: Sf21 insect cells, MultiBac baculovirus, co-overexpressed with the other ORC subunits; not shown: HA, C-terminal, kept
[1]
  binding result: binds

B3: human ORC2 (origin recognition complex subunit 2), full-length (natural protein, UniProt Q13416 1-577, looked up)
chain: MSKPELKEDKMLEVHFVGDDDVLNHILDREGGAKLKKERAQLLVNPKKIIKKPEYDLEEDDQEVLKDQNYVEIMGRDVQESLKNGSATGGGNKVYSFQNRKHSEKMAKLASELAKTPQKSVSFSLKNDPEITINVPQSSKGHSASDKVQPKNNDKSEFLSTAPRSLRKRLIVPRSHSDSESEYSASNSEDDEGVAQEHEEDTNAVIFSQKIQAQNRVVSAPVGKETPSKRMKRDKTSDLVEEYFEAHSSSKVLTSDRTLQKLKRAKLDQQTLRNLLSKVSPSFSAELKQLNQQYEKLFHKWMLQLHLGFNIVLYGLGSKRDLLERFRTTMLQDSIHVVINGFFPGISVKSVLNSITEEVLDHMGTFRSILDQLDWIVNKFKEDSSLELFLLIHNLDSQMLRGEKSQQIIGQLSSLHNIYLIASIDHLNAPLMWDHAKQSLFNWLWYETTTYSPYTEETSYENSLLVKQSGSLPLSSLTHVLRSLTPNARGIFRLLIKYQLDNQDNPSYIGLSFQDFYQQCREAFLVNSDLTLRAQLTEFRDHKLIRTKKGTDGVEYLLIPVDNGTLTDFLEKEEEEA
notes: Origin recognition complex subunit 2, human, full-length codon-optimized synthetic gene; Samples for cryo-EM were mildly cross-linked with glutaraldehyde (GraFix); also called HsORC2; source: Sf21 insect cells, MultiBac baculovirus, co-overexpressed with the other ORC subunits; anti-HA then Streptactin beads for HsORC1–5); not shown: 3x Flag, N-terminal, kept
[2]
  binding result: binds

— paper PMC7684300 (Cell Discovery, 2020)
